For twelve molecules, binding result and Kd results are on record in patent US20090018083A1 (ALBERT EINSTEIN SCHOOL OF MEDICINE OF YESHIVA UNIVERSITY, published 2009).

The target of assay [1] is T1, BCL6-3C BTB domain (human BCL6 residues 5-129 with C8Q/C67R/C84N) (human, UniProt P41182 5-129). In words: co-purification.
Description: (§1) In vitro binding assays. Co-purification: Equimolar amounts of His-tagged thioredoxin-corepressor fusion protein and BCL6 BTB or PLZF BTB domain were combined, incubated for at least two hours, and loaded onto a Ni-NTA spin column (Qiagen). The column was washed three times with 600 μl of wash buffer (200 mM NaCl, 20 mM Tris-HCl pH 8.0, 10 mM imidazole), and bound protein was released with 400 μl of elution buffer (200 mM NaCl, 20 mM Tris-HCl pH 8.0, 300 mM imidazole). Samples were analyzed on 10-20% SDS-PAGE gels and stained with Coomassie blue.
For assay [2], the target named is T1, BCL6-3C BTB domain (human BCL6 residues …). In words: SPR, biotinylated peptide on streptavidin chip, BCL6-3C BTB domain injected. (In general: SPR reads the build-up and loss of mass on a sensor chip optically.)
Description: “N.b.” indicates no detectable binding.
(§2) SPR: Biotinylated corepressor peptides were coupled to streptavidin-coated sensor chips to a density of 800 response units (Biacore 2000). BCL6 or PLZF BTB protein was serially diluted in running buffer (10 mM Hepes, pH 7.4, 150 mM NaCl, 3 mM EDTA, 0.005% v/v surfactant P20) and injected at a flow rate of 5 μL/min.
For assay [3], the target named is T2, PLZF BTB domain (UniProt Q05516 6-126, limits assumed).
T2 construct: domain: BTB domain; Purified protein; also called BTB^PLZF
T2 sequence (looked up): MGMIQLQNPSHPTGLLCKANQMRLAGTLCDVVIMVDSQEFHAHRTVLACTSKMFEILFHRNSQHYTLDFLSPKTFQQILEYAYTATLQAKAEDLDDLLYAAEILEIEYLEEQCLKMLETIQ
Description: SPR.
Description: as §2

The target in assay [4] is T1, BCL6-3C BTB domain (human BCL6 residues …). In words: Ni-NTA co-purification with the His-tagged thioredoxin fusion, SDS-PAGE, stained gel.
The target is the same in assay [5]. Description: native-gel mobility shift assay.
Description: (§3) The mixture was analyzed by non-denaturing polyacrylamide gel electrophoresis (PAGE) and protein bands were visualized with either Coomassie blue staining or silver staining.
The target in assay [6] is BCL6-3C BTB domain H116A (human, UniProt P41182 5-129). In words: co-purification.
Description: as §1
In assay [7] the target is BCL6-3C BTB domain N21K (human, UniProt P41182 5-129). In words: co-purification.
Description: as §1
In assay [8] the target is T2, PLZF BTB domain. In words: ITC. For orientation: Isothermal titration calorimetry measures the heat released or taken up as one component is titrated into another.
Description: All components were in 150 mM NaCl, 20 mM Hepes pH 7.7, 1 mM TCEP. […] To correct for dilution and mixing effects, a series of control injections was carried out, in which the heat of dilution was measured in blank titrations by injecting the peptide into the buffer.
Assay [9] deals with T1, BCL6-3C BTB domain (human BCL6 residues …). In words: non-denaturing PAGE mobility shift, constant BTB domain, increasing peptide.
Description: as §3

No end group written: not given here.

For orientation: Kd means the concentration at which binding is half-saturated. The low end stands for a tighter complex, the high end for a looser complex.

B1: hexahistidine tagged fusion protein containing BCoR residues 542 to 753 (other, UniProt Q6W2J9 542-753, looked up)
chain: SSCPRMGGTDAVITNVSGSVSSAGRPASASPAPNANADGTKTSRSSVETTPSVIQHVGQPPATPAKHSSSTSSKGAKASNPEPSFKANENGLPPSSIFLSPNEAFRSPPIPYPRSYLPYPAPEGIAVSPLSLHGKGPVYPHPVLLPNGSLFPGHLAPKPGLPYGLPTGRPEFVTYQDALGLGMVHPMLIPHTPIEITKEEKPERRSRSHERA
notes: not shown: hexahistidine tagged fusion partner
Take B1: in assay [1], the binding result is “no binding”.

B2: SMRT^1414-1441 peptide (fragment d), biotinylated, immobilised for SPR (peptide, UniProt Q9Y618 1414-1441, looked up)
peptide: LVATVKEAGRSIHEIPREELRHTPELPL
modifications: also: biotinylated lysine in N-terminal tag residues (not given here)
notes: not shown: N-terminal residues left after TEV cleavage (BirA biotinylation motif, thrombin site)
The molecule B2 showed a Kd in assay [2] of 15.8 nM. Further, the binding result in [3] was “no binding”.

B3: SMRT-BBD with residues 1427-1430 replaced by alanines (EIPR->AAAA) (peptide)
peptide: LVATVKEAGRSIHAAAA
notes: also called AAAA mutant; not shown: N-terminal fusion or tag residues depend on the assay (His-Trx fusion in co-purification, biotinylated tag remnant in SP)
In the case of B3, the binding result in assay [4] was “no binding”.

B4: SMRT-BBD with the SI to IS substitution at residues 1424-1425 (peptide)
peptide: LVATVKEAGRISHEIPR
notes: The text calls it SMRT-BBD; also called IS mutant; not shown: N-terminal fusion or tag residues depend on the assay (His-Trx fusion in co-purification, biotinylated tag remnant in SP)
Consider B4, for which the binding result in [4] was “no binding”.
As to RSEIISTAPASAVAPGP [BCoR peptide with the S507A/W509A/V511A triple mutation], the binding result in [5] is given as “no binding”.
On to RSEIISTAPWSSVVPGP [BCoR peptide with the S507W/W509S double mutation], for which the binding result in [5] is listed as “no binding”.

B5: SMRT^1414-1430 peptide, biotinylated, immobilised for SPR (peptide)
peptide: LVATVKEAGRSIHEIPR
modifications: also: biotinylated lysine 8 residues N-terminal to the peptide, not in the given chain
notes: SPR form of the minimal fragment; not shown: N-terminal residues left after TEV cleavage (BirA biotinylation motif, thrombin site)
With B5, the binding result in assay [3] is listed as “no binding”.

B6: SMRT^1417-1441 peptide, biotinylated, immobilised for SPR (peptide, UniProt Q9Y618 1417-1441, looked up)
peptide: TVKEAGRSIHEIPREELRHTPELPL
modifications: also: biotinylated lysine in N-terminal tag residues (not given here)
notes: as for B2
With B6, the binding result in assay [3] is reported as “no binding”.

B7: hexahistidine tagged fusion protein containing BCoR residues 317 to 547 (other, UniProt Q6W2J9 317-547, looked up)
chain: SAKAVTSGLPGDTALLLPPSPRPSPRVHLPTQPAADTYSEFHKHYARISTSPSVALSKPYMTVSSEFPAARLSNGKYPKAPEGGEGAQPVPGHARKTAVQDRKDGSSPPLLEKQTVTKDVTDKPLDLSSKVVDVDASKADHMKKMAPTVLVHSRAGSGLVLSGSEIPKETLSPPGNGCAIYRSEIISTAPSSWVVPGPSPNEENNGKSMSLKNKALDWAIPQQRSSSCPRM
notes: as for B1
As to B7, the binding result in assay [6] and in [7] was “no binding” in each case.

B8: SMRT^1414-1430 peptide (SMRT-BBD), no additional N-terminal residues (peptide)
peptide: LVATVKEAGRSIHEIPR
notes: Made by thrombin digestion of the fusion protein
For B8, the binding result in [8] is given as “no binding”.

B9: BCoR 498-514 peptide (BCoR BBD) (peptide)
peptide: RSEIISTAPSSWVVPGP
notes: Purified peptide used for co-crystallisation; also called BCoR-BBD peptide; BCoR peptide
For B9, the binding result in assay [9] is “binds”.

B10: hexahistidine tagged fusion protein containing BCoR residues 112 to 342 (other, UniProt Q6W2J9 112-342, looked up)
chain: LGFSSERNPEMQFKPNTPETVEASAVSGKPPNGFSAIYKTPPGIQKSAVATAEALGLDRPASDKQSPLNINGASYLRLPWVNPYMEGATPAIYPFLDSPNKYSLNMYKALLPQQSYSLAQPLYSPVCTNGERFLYLPPPHYVGPHIPSSLASPMRLSTPSASPAIPPLVHCADKSLPWKMGVSPGNPVDSHAYPHIQNSKQPRVPSAKAVTSGLPGDTALLLPPSPRPSPR
notes: as for B1
For the molecule B10, the binding result in assay [1] was “no binding”.
